Data on 1 molecule can be found in patent US20080249606A1 (published 2008).

The term Kd denotes the constant that tells how readily two partners part at equilibrium. Lower therefore signals higher affinity.

Test [1] deals with T1, Blocking Reagent (catalogue number 11112589001, Roche Diagnostics) immobilized in ELISA wells.
T1 construct: One molecule for all four plate types; The plate is named under assay in each row
The test can be described thus: ELISA, Blocking Reagent on Costar 9102 plate, tPA concentration series in PBS pH 7.3 with 10 mM εACA.

Test [2] concerns the target T2, BSA incubated overnight with dextran sulphate 500,000 Da (DXS500k) (bovine, UniProt P02769 25-607).
T2 construct: Same protein as m3, misfolded by contact with DXS500k (a non-protein polymer present in the mixture); also called BSA with DXS500k; DXS500k-protein mixture
In words: ELISA, protein/DXS500k mixture immobilized on Greiner Microlon plate, tPA in 10 mM εACA, detection with antibody 374b. In general terms: An ELISA detects its analyte on a solid surface through an enzyme-linked reagent.

In test [3] the target is T1, Blocking Reagent (catalogue number …). The test can be described thus: ELISA, Blocking Reagent on Nunc Immobilizer Amino plate.
For test [4] the target is unchanged. The test can be described thus: ELISA, Blocking Reagent on Costar 9102 plate (second experiment, FIG. 2M).
Test [5] has the same target. In words: ELISA, Blocking Reagent on Costar 2595 plate.
Test [6] shares this target. The test can be described thus: ELISA, Blocking Reagent on Greiner Microlon high-binding plate.

T2 sequence (P02769 25-607 limits assumed): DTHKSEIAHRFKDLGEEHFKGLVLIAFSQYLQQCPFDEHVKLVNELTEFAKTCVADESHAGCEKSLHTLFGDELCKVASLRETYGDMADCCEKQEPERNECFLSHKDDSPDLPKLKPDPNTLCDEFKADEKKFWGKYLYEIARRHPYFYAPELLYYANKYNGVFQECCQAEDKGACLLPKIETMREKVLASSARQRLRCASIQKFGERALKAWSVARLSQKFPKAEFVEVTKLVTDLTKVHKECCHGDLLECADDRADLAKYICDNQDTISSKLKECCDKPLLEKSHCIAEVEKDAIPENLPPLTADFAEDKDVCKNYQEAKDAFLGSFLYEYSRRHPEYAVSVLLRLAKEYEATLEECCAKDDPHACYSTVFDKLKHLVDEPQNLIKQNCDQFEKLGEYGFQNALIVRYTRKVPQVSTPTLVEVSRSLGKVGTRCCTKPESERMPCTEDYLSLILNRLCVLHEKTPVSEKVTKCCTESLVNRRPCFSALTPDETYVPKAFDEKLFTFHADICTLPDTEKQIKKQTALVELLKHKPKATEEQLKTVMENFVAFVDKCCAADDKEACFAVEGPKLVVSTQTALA

B1: tissue-type plasminogen activator (tPA, Actilyse, Boehringer-Ingelheim) (enzyme, UniProt P00750 36-562, looked up)
chain: SYQVICRDEKTQMIYQQHQSWLRPVLRSNRVEYCWCNSGRAQCHSVPVKSCSEPRCFNGGTCQQALYFSDFVCQCPEGFAGKCCEIDTRATCYEDQGISYRGTWSTAESGAECTNWNSSALAQKPYSGRRPDAIRLGLGNHNYCRNPDRDSKPWCYVFKAGKYSSEFCSTPACSEGNSDCYFGNGSAYRGTHSLTESGASCLPWNSMILIGKVYTAQNPSAQALGLGKHNYCRNPDGDAKPWCHVLKNRRLTWEYCDVPSCSTCGLRQYSQPQFRIKGGLFADIASHPWQAAIFAKHRRSPGERFLCGGILISSCWILSAAHCFQERFPPHHLTVILGRTYRVVPGEEEQKFEVEKYIVHKEFDDDTYDNDIALLQLKSDSSRCAQESSVVRTVCLPPADLQLPDWTECELSGYGKHEALSPFYSERLKEAHVRLYPSSRCTSQHLLNRTVTDNMLCAGDTRSGGPQANLHDACQGDSGGPLVCLNDGRMTLVGIISWGLGCGQKDVPGVYTKVTNYLDWIRDNMRP
notes: Bought drug product
Regarding B1, the Kd in test [1] is 0.0006 µM; in test [3], 0.039 µM; in test [4], roughly 0.0005 µM; in test [5], 0.03 µM; in test [6], 23 µM. Further, the “factor of increase of tPA binding against the protein incubated with buffer only” value in test [2] stood at 1.3 fold.
